Experimental data: article PMC11951922

B1: KA7–(EAAAK)2–TP (peptide)
peptide: KAKAKAKAKAKAKAEAAAKEAAAKGGGKKHVPGGGSVQIVYKPVDL
B2: KA7–GGGS–TP (peptide)
peptide: KAKAKAKAKAKAKAGGGSGGGKKHVPGGGSVQIVYKPVDL
B3: KA7–(GGGS)3–TP (peptide)
peptide: KAKAKAKAKAKAKAGGGSGGGSGGGSGGGKKHVPGGGSVQIVYKPVDL

molecular target: AF-tubulin (porcine) (UniProt P02550)
Sequence of UniProt P02550 (P02550 whole entry, chain 1 of 2): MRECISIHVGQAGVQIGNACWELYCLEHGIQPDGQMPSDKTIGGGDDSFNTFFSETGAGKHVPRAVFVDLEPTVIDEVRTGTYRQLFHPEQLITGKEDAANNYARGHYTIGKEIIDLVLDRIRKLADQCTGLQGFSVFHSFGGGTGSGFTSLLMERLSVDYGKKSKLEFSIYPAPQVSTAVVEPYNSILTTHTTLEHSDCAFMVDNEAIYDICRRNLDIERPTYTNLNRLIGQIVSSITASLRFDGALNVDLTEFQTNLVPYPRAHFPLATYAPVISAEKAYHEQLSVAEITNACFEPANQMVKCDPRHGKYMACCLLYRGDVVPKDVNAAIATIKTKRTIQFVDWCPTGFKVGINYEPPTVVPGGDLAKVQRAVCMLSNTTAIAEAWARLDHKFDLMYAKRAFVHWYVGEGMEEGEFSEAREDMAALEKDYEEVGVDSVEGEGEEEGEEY
Sequence of UniProt P02550 (Q767L7 whole entry, chain 2 of 2, further chain): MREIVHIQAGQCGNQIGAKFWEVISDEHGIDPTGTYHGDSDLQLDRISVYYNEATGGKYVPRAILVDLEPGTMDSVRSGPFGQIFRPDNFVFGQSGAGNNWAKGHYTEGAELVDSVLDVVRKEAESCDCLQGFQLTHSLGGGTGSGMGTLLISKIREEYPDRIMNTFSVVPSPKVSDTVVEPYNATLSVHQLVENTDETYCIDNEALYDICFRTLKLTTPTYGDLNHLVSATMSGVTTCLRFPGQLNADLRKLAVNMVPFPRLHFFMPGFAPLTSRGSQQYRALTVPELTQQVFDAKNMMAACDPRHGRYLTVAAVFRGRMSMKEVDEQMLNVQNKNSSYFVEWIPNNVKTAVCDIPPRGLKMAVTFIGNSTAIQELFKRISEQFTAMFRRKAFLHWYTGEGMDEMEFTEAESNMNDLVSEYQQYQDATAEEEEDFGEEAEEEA

| Binder | Pearson's correlation coefficient (PCC) of co-localisation of TMR-microtubule and AF-tubulin fluorescence in CLSM images, 100 uM peptide, doublet method (no peptide: 0.07) |
| --- | --- |
| B1 | 0.72 |
| B2 | 0.61 |
| B3 | 0.7 |
